Assay results taken from PMC8573169, “Structural basis for the inhibition of the Bacillus subtilis c-di-AMP cyclase CdaA by the phosphoglucomutase GlmM” (The Journal of Biological Chemistry, 2021).

B1: full-length B. subtilis GlmM (phosphoglucosamine mutase), His-tagged (enzyme, UniProt O34824 1-448, looked up)
chain: MGKYFGTDGVRGVANSELTPELAFKVGRFGGYVLTKDKQRPKVLIGRDTRISGHMLEGALVAGLLSIGAEVMRLGVISTPGVSYLTKAMDAEAGVMISASHNPVQDNGIKFFGGDGFKLSDEQEAEIERLMDEPEDKLPRPVGADLGLVNDYFEGGQKYLQFLKQTADEDFTGIHVALDCANGATSSLATHLFADLDADVSTMGTSPNGLNINDGVGSTHPEALSAFVKEKNADLGLAFDGDGDRLIAVDEKGNIVDGDQIMYICSKHLKSEGRLKDDTVVSTVMSNLGFYKALEKEGIKSVQTAVGDRYVVEAMKKDGYNVGGEQSGHLIFLDYNTTGDGLLSAIMLMNTLKATGKPLSELAAEMQKFPQLLVNVRVTDKYKVEENEKVKAVISEVEKEMNGDGRILVRPSGTEPLVRVMAEAKTKELCDEYVNRIVEVVRSEMGLE
notes: GlmM of B. subtilis strain 168, full-length protein; also called glmM-his; phosphoglucomutase GlmM; source: E. coli BL21(DE3), purified (Ni-NTA, SEC); also in lysate, mixed with the partner's lysate before Ni-NTA and SEC; not shown: His6, C-terminal, kept
B2: B. subtilis CdaA catalytic domain (CdaACD), His-tagged (domain or fragment, UniProt Q45589 97-273, looked up)
chain: FFSRSGTPVEEAQQKTIEAITKAINYMAKRRIGALLTIERDTGMGDYIETGIPLNAKVSSELLINIFIPNTPLHDGAVIMKNNEIAAAACYLPLSESPFISKELGTRHRAAVGISEVTDSLTIIVSEETGGVSVAKNGDLHRELTEEALKEMLEAEFKKNTRDTSSNRWYWRGKKNG
notes: C-terminal catalytic (DAC) domain of the c-di-AMP cyclase CdaA of B. subtilis strain 168, starting from amino acid Phe97; The His tag is thrombin cleavable; For MST the protein was labelled with an amine-reactive dye (Monolith Protein Labeling RED-NHS 2nd Generation kit); also called soluble catalytic domain of the c-di-AMP cyclase CdaA; his-cdaACD; source: E. coli BL21(DE3), purified (Ni-NTA, …)
B3: tag-less B. subtilis CdaACD (domain or fragment, UniProt Q45589 97-273, looked up)
chain: B2 chain
notes: C-terminal catalytic (DAC) domain of the c-di-AMP cyclase CdaA of B. subtilis strain 168, starting from amino acid Phe97; also called tag less CdaACD; source: E. coli BL21(DE3), purified (Ni-NTA, SEC), His tag removed with thrombin, SEC; not shown: His6, N-terminal, cleaved
B4: B. subtilis GlmM_(F369) variant lacking the C-terminal domain 4, His-tagged (domain or fragment, UniProt O34824 1-369, looked up)
chain: MGKYFGTDGVRGVANSELTPELAFKVGRFGGYVLTKDKQRPKVLIGRDTRISGHMLEGALVAGLLSIGAEVMRLGVISTPGVSYLTKAMDAEAGVMISASHNPVQDNGIKFFGGDGFKLSDEQEAEIERLMDEPEDKLPRPVGADLGLVNDYFEGGQKYLQFLKQTADEDFTGIHVALDCANGATSSLATHLFADLDADVSTMGTSPNGLNINDGVGSTHPEALSAFVKEKNADLGLAFDGDGDRLIAVDEKGNIVDGDQIMYICSKHLKSEGRLKDDTVVSTVMSNLGFYKALEKEGIKSVQTAVGDRYVVEAMKKDGYNVGGEQSGHLIFLDYNTTGDGLLSAIMLMNTLKATGKPLSELAAEMQKF
notes: GlmM of B. subtilis strain 168, residues Met1 to Phe369 (domains 1 to 3, lacking the flexible C-terminal domain 4); also called truncated GlmM; glmM_(F369)-his; source: E. coli BL21(DE3), purified (Ni-NTA, SEC); also in lysate, mixed with the partner's lysate before Ni-NTA and SEC; not shown: His6, C-terminal, kept

How the values were obtained:
[1] = target: the molecule itself; assay: SEC-SAXS; purified proteins or purified complexes (CdaACD 5 mg/ml, GlmM 24 mg/ml, CdaACD:GlmM 24 mg/ml, CdaACD:GlmM_(F369) 10 mg/ml) on a Shodex KW403 column in 30 mM Tris pH 7.5, 150 mM NaCl, with continuous SAXS data collection; envelopes fitted with the crystal structures
[2] = target: B1; assay: MST; fluorescently labelled (RED-NHS) CdaACD at 25 nM final, unlabelled GlmM 0.78 uM to 800 uM final; 10 mM HEPES pH 7.5, 150 mM NaCl, 0.05% Tween-20; Monolith NT.115, LED power 95%, MST power 80%; five runs; details: both partners purified
[3] = target: the molecule itself; assay: crystal structure; purified CdaACD:GlmM_(F369) complex at 10 mg/ml, two conditions (complex 1, 3.6 A; complex 2, 4.2 A); three complexes in the asymmetric unit
[4] = target: the molecule itself; assay: crystal structure; tag-less CdaACD at 4 mg/ml; 0.1 M sodium cacodylate pH 6.5, 0.1 M ammonium sulfate, 0.3 M sodium formate, 6% PEG 8000, 3% gamma-PGA; dimer in the asymmetric unit; 2.8 A

**Q.** How did the “stoichiometry N” value [1] turn out when B1 was run?
**A.** The value was 2.

**Q.** With B2 as the binder, how does the Kd [2] read?
**A.** Its Kd is 14.4 ± 0.962 µM.

**Q.** And the “stoichiometry N” value [3]?
**A.** Its value is 2.

**Q.** B3 was tested. Which “stoichiometry N” value [4] did it give?
**A.** The value was 2.

**Q.** For B4, which “stoichiometry N” value [3] is on record?
**A.** The value was 2.
